The text below walks through data of patent US20250368745A1 (published 2025).

Numbering of substitutions follows the chain as printed. Names and notes keep the numbering of the source. Values joined by “and” are separate entries in the source; they are usually repeats but may differ in a detail not shown here. Equal entries are not always repeated.

T1: human IL-18BP (human, UniProt O95998 31-194)
T1 construct: UniProt printed as 095998; also called hIL-18BP
T1 sequence: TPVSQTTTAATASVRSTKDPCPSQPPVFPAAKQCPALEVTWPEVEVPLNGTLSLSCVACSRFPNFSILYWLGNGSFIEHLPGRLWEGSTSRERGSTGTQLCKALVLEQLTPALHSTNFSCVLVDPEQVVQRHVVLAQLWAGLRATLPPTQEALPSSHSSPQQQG

B1: SA301a HC-Y59P (antibody, name in Kabat numbering, V domains shown)
VH: QVQLQESGPGLVKPSQTLSLTCTVSGYSITSDYNSHWIRQPPGKGLEWIGYIHYSGSTNPNPSLKSRVTISRDTSKNQFSLKLSSVTAADTAVYYCARNYGSIYVNYFDYWGQGTLVTVSS
VL: EIVLTQSPATLSLSPGERATLSCSASSSVSYMYWYQQKPGQAPRPLIYRTSNLASGIPARFSGSGSGTDFTLTISSLEPEDFAVYYCQQYHSYPTFGGGTKVEIK
notes: IgG1 kappa
B2: SA301a HC-Y59R (antibody, name in Kabat numbering, V domains shown)
VH: B1 VH with P60R
VL: B1 VL
notes: IgG1 kappa
B3: SA301a HC-Y59V (antibody, name in Kabat numbering, V domains shown)
VH: B1 VH with P60V
VL: B1 VL
notes: IgG1 kappa
B4: SA301a HC-Y59S (antibody, name in Kabat numbering, V domains shown)
VH: B1 VH with P60S
VL: B1 VL
notes: IgG1 kappa
B5: SA301a HC-Y59Q (antibody, name in Kabat numbering, V domains shown)
VH: B1 VH with P60Q
VL: B1 VL
notes: IgG1 kappa
B6: SA301a HC-Y59T (antibody, name in Kabat numbering, V domains shown)
VH: B1 VH with P60T
VL: B1 VL
notes: IgG1 kappa
B7: SA302a HC-T30E (antibody, V domains shown)
VH: B1 VH with T30E, S35A, P60Y
VL: B1 VL
B8: SA302a HC-T30F (antibody, V domains shown)
VH: B1 VH with T30F, S35A, P60Y
VL: B1 VL
B9: SA302a HC-S31V (antibody, V domains shown)
VH: B1 VH with S31V, S35A, P60Y
VL: B1 VL
B10: SA302a HC-T30I (antibody, V domains shown)
VH: B1 VH with T30I, S35A, P60Y
VL: B1 VL
B11: SA302a HC-T30Y (antibody, V domains shown)
VH: B1 VH with T30Y, S35A, P60Y
VL: B1 VL
B12: SA302a HC-T30N (antibody, V domains shown)
VH: B1 VH with T30N, S35A, P60Y
VL: B1 VL
B13: SA302a HC-T30M (antibody, V domains shown)
VH: B1 VH with T30M, S35A, P60Y
VL: B1 VL
B14: SA302a HC-T30L (antibody, V domains shown)
VH: B1 VH with T30L, S35A, P60Y
VL: B1 VL
B15: SA302a HC-T30S (antibody, V domains shown)
VH: B1 VH with T30S, S35A, P60Y
VL: B1 VL
B16: SA302a HC-T30V (antibody, V domains shown)
VH: B1 VH with T30V, S35A, P60Y
VL: B1 VL
B17: SA302a HC-T30G (antibody, V domains shown)
VH: B1 VH with T30G, S35A, P60Y
VL: B1 VL
B18: SA302a HC-S31N (antibody, V domains shown)
VH: B1 VH with S31N, S35A, P60Y
VL: B1 VL
B19: SA302a HC-T30A (antibody, V domains shown)
VH: B1 VH with T30A, S35A, P60Y
VL: B1 VL
B20: SA302a HC-T30Q (antibody, V domains shown)
VH: B1 VH with T30Q, S35A, P60Y
VL: B1 VL
B21: SA302a HC-H35E (antibody, V domains shown)
VH: B1 VH with S35A, H36E, P60Y
VL: B1 VL
notes: IgG1 kappa
B22: SA302a HC-H35P (antibody, V domains shown)
VH: B1 VH with S35A, H36P, P60Y
VL: B1 VL
notes: IgG1 kappa
B23: SA302a HC-D33T (antibody, V domains shown)
VH: B1 VH with D32T, S35A, P60Y
VL: B1 VL
notes: IgG1 kappa
B24: SA302a HC-D33E (antibody, V domains shown)
VH: B1 VH with D32E, S35A, P60Y
VL: B1 VL
notes: IgG1 kappa
B25: SA302a HC-H35K (antibody, V domains shown)
VH: B1 VH with S35A, H36K, P60Y
VL: B1 VL
notes: IgG1 kappa
B26: SA302a HC-H35T (antibody, V domains shown)
VH: B1 VH with S35A, H36T, P60Y
VL: B1 VL
notes: IgG1 kappa
B27: SA302a HC-D33Y (antibody, V domains shown)
VH: B1 VH with D32Y, S35A, P60Y
VL: B1 VL
notes: IgG1 kappa
B28: SA302a HC-D33G (antibody, V domains shown)
VH: B1 VH with D32G, S35A, P60Y
VL: B1 VL
notes: IgG1 kappa
B29: SA302a HC-H35A (antibody, V domains shown)
VH: B1 VH with S35A, H36A, P60Y
VL: B1 VL
notes: IgG1 kappa
B30: SA302a HC-H35M (antibody, V domains shown)
VH: B1 VH with S35A, H36M, P60Y
VL: B1 VL
notes: IgG1 kappa
B31: SA302a HC-D33Q (antibody, V domains shown)
VH: B1 VH with D32Q, S35A, P60Y
VL: B1 VL
notes: IgG1 kappa
B32: SA302a HC-H35V (antibody, V domains shown)
VH: B1 VH with S35A, H36V, P60Y
VL: B1 VL
notes: IgG1 kappa
B33: SA302a HC-D33V (antibody, V domains shown)
VH: B1 VH with D32V, S35A, P60Y
VL: B1 VL
notes: IgG1 kappa

One assay concerns the target T1, human IL-18BP. In words: BLI, apparent KD. In general terms: In BLI a coated tip is dipped into the sample, and binding shifts an interference pattern.
On to B1, for which the Kd stood at 0.08 nM. As for B2, the Kd worked out at 0.42 nM. Same read-out and setting: the figure for B3 is 0.38 nM; for B4 it is 1.57 nM; for B5 it is 0.35 nM. In the case of B6, the Kd worked out at 0.14 nM.

For the next assay, the target named is T1, human IL-18BP. In words: BLI, apparent KD. This is another data set of the same source.
B7: the Kd worked out at 2.08 nM. B8: the Kd was determined as 1.29 nM.

As for B9, the Kd is 1.09 nM. With B10, the Kd came out at 1.79 nM. With B11, the Kd was 1.15 nM.

As to B12, the Kd was 1.5 nM. With B13, the Kd was 1.54 nM. For the molecule B14, the Kd came to 1.22 nM. On to B15, for which the Kd worked out at 0.66 nM.

For B16, the Kd is 1.08 nM. In the case of B17, the Kd came to 1.38 nM. For B18, the Kd came out at 0.98 nM. The same measure, in the same setting: next, B19: 1.32 nM; B20: 1.28 nM. B21: the Kd was found to be 1.57 nM. The same measure, in the same setting: next, B22: 0.88 nM; B23: 5.17 nM and 8.95 nM.

Regarding B24, the Kd was 1.76 nM. On the same count and under the same terms, next, B25: 0.44 nM. With B26, the Kd came out at 2.23 nM. In the case of B27, the Kd was 3.79 nM. Take B28: the Kd was 3.95 nM.

For the molecule B29, the Kd was 6.41 nM.

With B30, the Kd amounted to 2.18 nM. Regarding B31, the Kd was determined as 2.92 nM. Same read-out and setting: next, B32: 2.42 nM. On to B33, for which the Kd turned out to be 5.42 nM.
